B1: sgRNAs 1112+1122: pair of single guide RNAs, SEQ ID NO: 18 and 19, targeting the K1-5 phage genome with Cas9 (nucleic acid)
guide 1: UAUAUUAUACCAGAGAGGCGGUUUUAGAGCUAGAAAUAGCAAGUUAAAAUAAGGCUAGUCCGUUAUCAACUUGAAAAAGUGGCACCGAGUCGGUGCUUUUUUU
guide 2: GAAGUUCUAAGGAGAUAACAGUUUUAGAGCUAGAAAUAGCAAGUUAAAAUAAGGCUAGUCCGUUAUCAACUUGAAAAAGUGGCACCGAGUCGGUGCUUUUUUU
modifications: further chemistry not given here
B2: sgRNAs 86+89: pair of single guide RNAs, SEQ ID NO: 16 and 17, targeting the K1-5 phage genome with Cas9 (nucleic acid)
guide 1: ACUAAAUGAGGAUUAAAUCAGUUUUAGAGCUAGAAAUAGCAAGUUAAAAUAAGGCUAGUCCGUUAUCAACUUGAAAAAGUGGCACCGAGUCGGUGCUUUUUUU
guide 2: UUACUCUGAUGCACUACAUGGUUUUAGAGCUAGAAAUAGCAAGUUAAAAUAAGGCUAGUCCGUUAUCAACUUGAAAAAGUGGCACCGAGUCGGUGCUUUUUUU
modifications: further chemistry not given here

Tested on: K1-5 phage
Assay: Plaquing efficiency of K1-5 phage on K1 E. coli strains with inducible CRISPR-Cas9 and sgRNAs targeting the phage genome
Format: cell-based, K1-5 bacteriophage
Conditions: K1-5 phage plated on strains expressing the sgRNAs, in the absence of homology for repair
Description: K1 E. coli strains were generated for cleaving and recombining at locations specified by either sgRNAs 86+89 or sgRNAs 1112+1122. Cells were maintained with 50 μg/mL kanamycin (for the CRISPR expression vector) and 10 μg/mL gentamicin (for the recombination expression vector). Cells were grown while shaking at 37° C. to OD600˜0.6 and were then subjected to various induction treatments. Cultures were either (1) not induced, (2) induced with 100 ng/mL anhydrotetracycline (aTc) to activate Cas9 expression, (3) induced with 0.2% arabinose to activate lambda red operon expression, or (4) induced with both 100 ng/mL anhydrotetracycline and 0.2% arabinose to activate expression of Cas9 and lambda red genes. Induction was carried out for 2 hours while shaking at 37° C.
K1-5 lysate was then used to infect 200 μL cultures of each bacterial strain/induction condition at 10^6, 10^4, and 10^2 PFU. This infection was given 10 minutes for the phage to adsorb before being added to 3 mL of 0.65% LB top agar. The appropriate inducer was spiked into each top agar tube to maintain induction. The top agar was then spread over an LB agar plate containing the appropriate antibiotics to maintain the CRISPR and recombination expression vectors. The agar plates were incubated in an airtight container for approximately 16 hours at 37° C. […]

| Molecule | reduction in plaquing efficiency |
| --- | --- |
| B1 | 2105 fold |
| B2 | ~1.9×10^6 fold |
